Reference: patent US20220288168A1 (Eli Lilly, published 2022)
Numbered stars: 1 amine (or outer) side, 2 acyl side, 3 side chain; on linkers, the order of the positions; unused ones are H or OH. Bridge positions count the residues as written; N and C are the ends. Square brackets hold non-standard residues; d marks the D form. Side chains are listed from the residue outwards. Ends that are not written are not given here. * marks the point of attachment. C20 diacid = O=C(O)CCCCCCCCCCCCCCCCCCC(=O)*; γGlu = O=C(O)[C@H](CCC(=O)[*:2])N[*:1]; αMeF = C[C@](N)(Cc1ccccc1)C(=O)O; NMeD = CN[C@@H](CC(=O)O)C(=O)O; NMeN = CN[C@@H](CC(N)=O)C(=O)O; αMeL = CC(C)C[C@](C)(N)C(=O)O; Orn = NCCC[C@H](N)C(=O)O; AEEA = NCCOCCOCC(=O)O; CH2 = C([*:1])[*:2]

T1: human calcitonin receptor (hCTR) (human, UniProt P30988 25-474)
T1 sequence (looked up): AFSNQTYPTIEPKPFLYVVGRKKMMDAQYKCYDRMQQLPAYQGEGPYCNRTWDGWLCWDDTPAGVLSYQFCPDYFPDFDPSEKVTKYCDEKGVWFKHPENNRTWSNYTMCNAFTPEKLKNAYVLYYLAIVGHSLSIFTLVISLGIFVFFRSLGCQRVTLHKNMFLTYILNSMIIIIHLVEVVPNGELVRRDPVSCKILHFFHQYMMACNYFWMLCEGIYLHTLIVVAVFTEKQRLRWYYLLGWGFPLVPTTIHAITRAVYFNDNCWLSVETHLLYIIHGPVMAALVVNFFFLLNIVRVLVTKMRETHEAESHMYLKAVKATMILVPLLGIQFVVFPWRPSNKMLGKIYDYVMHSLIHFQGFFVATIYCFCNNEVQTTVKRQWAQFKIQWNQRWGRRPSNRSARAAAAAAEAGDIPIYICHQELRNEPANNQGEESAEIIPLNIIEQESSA


Target: T2, human amylin receptor 1 (hAMY1R): human calcitonin receptor co-expressed with human RAMP1 in UMUC3 cells (human, UniProt P30988 25-474; O60894 27-148)
Assay: cell-based or functional assay

T2 sequence (O60894 27-148, chain 2 of 2, one chain of several): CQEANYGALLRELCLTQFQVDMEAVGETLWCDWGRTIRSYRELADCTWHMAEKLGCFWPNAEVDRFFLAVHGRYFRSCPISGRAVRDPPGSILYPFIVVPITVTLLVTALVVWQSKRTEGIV

[γGlu]CNTATCATG[Orn]LAE[αMeF]LVRSSN[NMeN]FGPKLPPTEVGSNTY-NH2 (bridge 2-7 via CH2) [Compound I] and KCETATCATG[Orn]LAE[αMeF]LVRSSN[NMeD]FGPILPPTEVGSNTY-NH2 (bridge 2-7 via CH2) [Compound V] are within 1.5-fold of each other in “hAMYIR cAMP EC50” value: 0.133 nM for the first, 0.139 nM for the second.

Going from K([γGlu-γGlu-C20 diacid])CETATCATG[Orn]LAE[αMeF]LVRSSN[NMeD]FGPILPPTEVGSNTY-NH2 (bridge 2-7 via CH2, Acylated form of Compound V) [Compound VI] to KCETATCATG[Orn][αMeL]AEFLVRSSHNFGPILPPTEVGSNTY-NH2 (bridge 2-7 via CH2) [Compound VII], the “hAMYIR cAMP EC50” value rises from 0.107 nM to 0.173 nM (1.6-fold).

K([γGlu-γGlu-C20 diacid])CETATCATG[Orn][αMeL]AEFLVRSSHNFGPILPPTEVGSNTY-NH2 (bridge 2-7 via CH2, Acylated form of Compound VII) [Compound VIII] and [γGlu]CNTATCATGKLAEFLVRSSNNFGPK([AEEA-AEEA-γGlu-C20 diacid])LPPTEVGSNTY-NH2 (bridge 2-7 via CH2) [Compound IX] are within 1.5-fold of each other in “hAMYIR cAMP EC50” value: 0.107 nM for the first, 0.132 nM for the second.

Compared with [γGlu]CNTATCATGKLAEFLVRSSNNFGPK([γGlu-AEEA-AEEA-C20 diacid])LPPTEVGSNTY-NH2 (bridge 2-7 via CH2) [Compound X], [γGlu]CNTATCATGKLAEFLVRSSNNFGPK([γGlu-γGlu-AEEA-C20 diacid])LPPTEVGSNTY-NH2 (bridge 2-7 via CH2) [Compound XI] is 2.1-fold lower in “hAMYIR cAMP EC50” value: 0.08 nM for the first, 0.038 nM for the second.

[γGlu]CNTATCATQ[Orn]LAEFLVRSSNNFGPK([AEEA-AEEA-γGlu-C20 diacid])LPPTEVGSNTY-NH2 (bridge 2-7 via CH2) [Compound XII] and [γGlu]CGTATCATG[Orn]LAEFLVRSSNNFGPK([γGlu-γGlu-C20 diacid])LPPTEVGSNTY-NH2 (bridge 2-7 via CH2) [Compound XIII] are within 1.5-fold of each other in “hAMYIR cAMP EC50” value: 0.113 nM for the first, 0.078 nM for the second.

Compared with [γGlu]CNTATCATG[Orn]LAE[αMeF]LVRSSN[NMeN]FGPK([γGlu-γGlu-C20 diacid])LPPTEVGSNTY-NH2 (bridge 2-7 via CH2, Acylated form of Compound I) [Compound II], [γGlu]CNTATCATG[Orn]LAE[αMeF]LVRSSN[NMeD]FGPKLPPTEVGSNTY-NH2 (bridge 2-7 via CH2) [Compound III] is 2.1-fold higher in “hAMYIR cAMP EC50” value: 0.075 nM for the first, 0.156 nM for the second.

[γGlu]CNTATCATG[Orn]LAE[αMeF]LVRSSN[NMeD]FGPK([γGlu-γGlu-C20 diacid])LPPTEVGSNTY-NH2 (bridge 2-7 via CH2, Acylated form of Compound III) [Compound IV] was tested, and the “hAMYIR cAMP EC50” value was 0.107 nM.

Target: T1, human calcitonin receptor (hCTR)
Assay: cell-based or functional assay

[γGlu]CNTATCATG[Orn]LAE[αMeF]LVRSSN[NMeN]FGPKLPPTEVGSNTY-NH2 (bridge 2-7 via CH2) [Compound I] and KCETATCATG[Orn]LAE[αMeF]LVRSSN[NMeD]FGPILPPTEVGSNTY-NH2 (bridge 2-7 via CH2) [Compound V] are within 1.5-fold of each other in “hCTR cAMP EC50” value: 18 nM for the first, 17 nM for the second.

K([γGlu-γGlu-C20 diacid])CETATCATG[Orn]LAE[αMeF]LVRSSN[NMeD]FGPILPPTEVGSNTY-NH2 (bridge 2-7 via CH2, Acylated form of Compound V) [Compound VI] and KCETATCATG[Orn][αMeL]AEFLVRSSHNFGPILPPTEVGSNTY-NH2 (bridge 2-7 via CH2) [Compound VII] are within 1.5-fold of each other in “hCTR cAMP EC50” value: 13.2 nM for the first, 11.9 nM for the second.

Going from K([γGlu-γGlu-C20 diacid])CETATCATG[Orn][αMeL]AEFLVRSSHNFGPILPPTEVGSNTY-NH2 (bridge 2-7 via CH2, Acylated form of Compound VII) [Compound VIII] to [γGlu]CNTATCATGKLAEFLVRSSNNFGPK([AEEA-AEEA-γGlu-C20 diacid])LPPTEVGSNTY-NH2 (bridge 2-7 via CH2) [Compound IX], the “hCTR cAMP EC50” value rises from 9.69 nM to 18.9 nM (2-fold).

[γGlu]CNTATCATGKLAEFLVRSSNNFGPK([γGlu-AEEA-AEEA-C20 diacid])LPPTEVGSNTY-NH2 (bridge 2-7 via CH2) [Compound X] and [γGlu]CNTATCATGKLAEFLVRSSNNFGPK([γGlu-γGlu-AEEA-C20 diacid])LPPTEVGSNTY-NH2 (bridge 2-7 via CH2) [Compound XI] are within 1.5-fold of each other in “hCTR cAMP EC50” value: 14 nM for the first, 10.5 nM for the second.

First: [γGlu]CNTATCATQ[Orn]LAEFLVRSSNNFGPK([AEEA-AEEA-γGlu-C20 diacid])LPPTEVGSNTY-NH2 (bridge 2-7 via CH2) [Compound XII]
Second: [γGlu]CGTATCATG[Orn]LAEFLVRSSNNFGPK([γGlu-γGlu-C20 diacid])LPPTEVGSNTY-NH2 (bridge 2-7 via CH2) [Compound XIII]
The “hCTR cAMP EC50” value of the first is 2.7-fold higher: 25.9 nM for the first, 9.49 nM for the second.

First: [γGlu]CNTATCATG[Orn]LAE[αMeF]LVRSSN[NMeN]FGPK([γGlu-γGlu-C20 diacid])LPPTEVGSNTY-NH2 (bridge 2-7 via CH2, Acylated form of Compound I) [Compound II]
Second: [γGlu]CNTATCATG[Orn]LAE[αMeF]LVRSSN[NMeD]FGPKLPPTEVGSNTY-NH2 (bridge 2-7 via CH2) [Compound III]
The “hCTR cAMP EC50” value of the first is 7-fold lower: 2.34 nM for the first, 16.3 nM for the second.

For [γGlu]CNTATCATG[Orn]LAE[αMeF]LVRSSN[NMeD]FGPK([γGlu-γGlu-C20 diacid])LPPTEVGSNTY-NH2 (bridge 2-7 via CH2, Acylated form of Compound III) [Compound IV], the “hCTR cAMP EC50” value was 6.14 nM.

Target: T1, human calcitonin receptor (hCTR)
Assay: competitive radioligand binding filter assay, hCTR membranes, displacement of 125I-hCT

First: K([γGlu-γGlu-C20 diacid])CETATCATG[Orn]LAE[αMeF]LVRSSN[NMeD]FGPILPPTEVGSNTY-NH2 (bridge 2-7 via CH2, Acylated form of Compound V) [Compound VI]
Second: K([γGlu-γGlu-C20 diacid])CETATCATG[Orn][αMeL]AEFLVRSSHNFGPILPPTEVGSNTY-NH2 (bridge 2-7 via CH2, Acylated form of Compound VII) [Compound VIII]
The Ki of the first is 3.9-fold lower: 235 nM for the first, 927 nM for the second.

Going from [γGlu]CNTATCATG[Orn]LAE[αMeF]LVRSSN[NMeN]FGPK([γGlu-γGlu-C20 diacid])LPPTEVGSNTY-NH2 (bridge 2-7 via CH2, Acylated form of Compound I) [Compound II] to [γGlu]CNTATCATG[Orn]LAE[αMeF]LVRSSN[NMeD]FGPK([γGlu-γGlu-C20 diacid])LPPTEVGSNTY-NH2 (bridge 2-7 via CH2, Acylated form of Compound III) [Compound IV], the Ki rises from 202 nM to 665 nM (3.3-fold). The first binds more tightly here.

Target: T2, human amylin receptor 1 (hAMY1R): human …
Assay: competitive radioligand binding filter assay, hAMY1R membranes, displacement of 125I-rAMY
Method: The equilibrium dissociation constants (Kd) for the various receptor/radioligand interactions are determined from saturation binding analysis using the same reagents and buffers as described below for compound testing.
Binding reactions are carried out in 0.1 mL total reaction volume in a polystyrene 96 deep-well assay block. […] The binding reaction is initiated by the addition of 0.05 mL of 200 μg/mL hAMY1R diluted in assay buffer to the radioactivity. Assay blocks are gently vortexed, sealed with parafilm, and incubated at RT for approximately 20 hours.

K([γGlu-γGlu-C20 diacid])CETATCATG[Orn]LAE[αMeF]LVRSSN[NMeD]FGPILPPTEVGSNTY-NH2 (bridge 2-7 via CH2, Acylated form of Compound V) [Compound VI] and K([γGlu-γGlu-C20 diacid])CETATCATG[Orn][αMeL]AEFLVRSSHNFGPILPPTEVGSNTY-NH2 (bridge 2-7 via CH2, Acylated form of Compound VII) [Compound VIII] are within 1.5-fold of each other in Ki: 0.0445 nM for the first, 0.0435 nM for the second.

Compared with [γGlu]CNTATCATG[Orn]LAE[αMeF]LVRSSN[NMeN]FGPK([γGlu-γGlu-C20 diacid])LPPTEVGSNTY-NH2 (bridge 2-7 via CH2, Acylated form of Compound I) [Compound II], [γGlu]CNTATCATG[Orn]LAE[αMeF]LVRSSN[NMeD]FGPK([γGlu-γGlu-C20 diacid])LPPTEVGSNTY-NH2 (bridge 2-7 via CH2, Acylated form of Compound III) [Compound IV] is 1.7-fold higher in Ki: 0.017 nM for the first, 0.0296 nM for the second. The first binds more tightly here.
